{
  "source": "paper PMC5586252",
  "about": "“PP2A-B′ holoenzyme substrate recognition, regulation and role in cytokinesis” (Cell Discovery, 2017)",
  "molecules": {"B1": {"name": "Cyk4 (1–177): Cyk4 construct (residue 1–177) containing the coiled-coil domain and a portion of the disordered region (protein, UniProt Q9H0H5 1-177, looked up, fragment)", "chain": "MDTMMLNVRNLFEQLVRRVEILSEGNEVQFIQLAKDFEDFRKKWQRTDHELGKYKDLLMKAETERSALDVKLKHARNQVDVEIKRRQRAEADCEKLERQIQLIREMLMCDTSGSIQLSEEQKSALAFLNRGQPSSSNAGNKRLSTIDESGSILSDISFDKTDESLDWDSSLVKTFKL"}, "B2": {"name": "pCyk4 (1–177): Cyk4 (1–177) phosphorylated in vitro by Plk1 (protein)", "chain": "GSMDTMMLNVRNLFEQLVRRVEILSEGNEVQFIQLAKDFEDFRKKWQRTDHELGKYKDLLMKAETERSALDVKLKHARNQVDVEIKRRQRAEADCEKLERQIQLIREMLMCDTSGSIQLSEEQKSALAFLNRGQPSSSNAGNKRLSTIDESGSILSDISFDKTDESLDWDSSLVKTFKL", "modifications": "phosphorylated by Plk1: mono- to pentakis-phosphorylated forms, no unphosphorylated form; sites of the tetrakis form S149, S157, S164 and S170; left off: GST, N-terminal, cleaved", "notes": "Cyk4 (1–177) phosphorylated in vitro by Plk1"}},
  "test_system": "GST-B′γ1",
  "experiment": "Titration pull-down of Cyk4 / pCyk4 by immobilized GST-B′γ1",
  "assay_type": "binding",
  "conditions": "10 μg immobilized GST-B′γ1",
  "experimental": "Next, we thoroughly examined Cyk4 phosphorylation sites by MS and the effect of each phosphorylation on B′ binding. […] Upon phosphorylation in vitro by Plk1, the interaction can be detected with Cyk4 concentration as low as 0.6 μM and the half maximum binding can be obtained with the concentration of pCyk4 (1–177) between 2.5 and 5 μM (Figure 4d). […] No unphosphorylated CyK4 is detected (Figure 4e, left panel). The most abundant species are 2pCyk4 and 3pCyk4 that correspond to bis- and tris-phosphorylated proteoforms, respectively (Figure 4e, left panel). Further tandem MS with collision-induced dissociation (CID) and electron capture dissociation (ECD) of 4pCyk4 pinpointed the four sites that are phosphorylated, S149, S157, S164 and S170 (Figure 4e, right panel). Phosphorylation at these four sites was previously reported collectively, but not simultaneously, in different studies. […] As 5pCyk4 represents a minor species of the pCyk4 (Figure 4e, left panel), we concluded that the increase of binding affinity between B′ and pCyk4 is largely contributed by phosphorylation at S149. […] These collectively confirmed that pCyk4 interacts with PP2A-B′ holoenzymes via the identified B′-binding motif that is responsive to primarily the Plk1 phosphorylation site at S149.\nApproximately 10 μg of GST-tagged B′-binding motifs or GST-pCyk4 was bound to 10 μl of glutathione resin via GST tag. […]",
  "data": [
    {"molecule": "B1", "values": [
      {"measurement": "concentration at which interaction with GST-B′γ1 can be detected", "result": "≥ 20", "unit": "µM"}
    ]},
    {"molecule": "B2", "values": [
      {"measurement": "concentration at which interaction with GST-B′γ1 can be detected", "result": 0.6, "unit": "µM"}
    ]}
  ]
}
